Assay: soluble fraction after stress (log2 fold change); higher = more stays soluble; pooled small domains, quantitative proteomics
Settings: stress: 75 degC
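Note: 20 min heating vs room temperature control held 20 min.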

| Sequence | soluble fraction (log2) |
| --- | --- |
| HMKMPNGYGSITKLSGKRRKPWRVRKTAGWELDAKTQKLKQTYINIGYYETRADAMSALVSYNEDP | -1.01 |
| HMKMQPVISQGVLYINNVTDVRTIEVFDISGRIVADAAASTTVNIAHLNEGPYIVKVTTVNGIESIKILNK | -2.5 |
| HMKNAMTDIYLEEIKKILTKNEFLVYTLRELNNFSVQFITDNYDLSEKTIYNSVYRAKKKIDRHFT | -0.159 |
| HMKNDKLLIFMELKGISRTQLSKSTGIPASTLGRIINGDVQKIKAVYMEAIANALDTSIHTIFDV | -1.6 |
| HMKNDNIHMMASKINGIALEVGVLTPGMHPKNDLSEGEVGYIVTNLKTTREAKVGDTVTLAKKPAATPLPG | 0.322 |
| HMKNETFAITSEDAGKRLDVWLTNILGDYSRSYVERLVEQGNVTVGGKTVKAGYKLKAGDSVQVSIPGPK | 0.144 |
| HMKNISSEEDREKALSLGITQEFIDNKGRYFITVPNKPSNFKEQALNIQKEISEQIDTVINKRFEF | 0.0903 |
| HMKNLDILTPKEIEVLNLVAKGYSNSKISKELDIAEVTVKKHIGSMFQKLDVKDRLSLALIL | -0.591 |
| HMKNLKPSTEVILKELVKRYPDQTEFRKQQIVDVGQSFGYKGKDYGPIFDADNRVKIGTYDLAGLIVPLQR | 0.0472 |
| HMKNLNVIDLSALRTLELKESSDWTLIQKRFKLLVKKYHPDMNAGSKQYEEKLKKITLAYTHLKKLF | -2.67 |
| HMKNQQLFNIGDRFQVDGVAYRMEKLFPENGTVEVYNLGVGRHKTMSFEEILALWNSGKLLFEI | -0.966 |
| HMKNSIKLDNFVGMSYDEVISNKEYDFNFVSAFEKTSDYEAGTIIGQTPAAEERVMVGTTVTLTVAQP | 0.491 |
| HMKNTADRVYENLFHMLVSGDYAPGDRIPSEHELKERFNVSRNTIRAALNRMNALGIIETRQGDGTYLKG | -0.472 |
| HMKNTFGLTEREMEVLALIVDGLSNPEIAEKLFITRATAKAHVHSILQKLYVDDRTQAAVTAMREGL | -2.21 |
| HMKNTIPVPHIIGLSEQEARETLERAGLQLNVIKTEPNTKYESGQVTDTNPNEGIKVPKGTIVNVVLADS | -0.0118 |
| HMKNTLDAYIRYLSNFLSRNNYPEAEDLSFINARADQAYEVFLEARRGGVDVSTAEELAMIALMQGY | -2.34 |
| HMKNVEEMILGKLKRKVSENLENASFEEIILVDAEKSVYKGIIKANYIEYYFRVNLSTGEVLSWKLK | -0.86 |
| HMKPAFTPYVVKVTADVLNVRSGPGTNYGITTKVKKGEAYTIVEEKNGWGKLKSGAGWISLEYTVK | -1.09 |
| HMKPALFSADELNRLYRYGLSLTGERDRAYDLLQTALEKYLRQSQAPANAMRYVRKIMHNQFIDDYR | -1.53 |
| HMKPDWLSDGRLIPDEVMSHLRKIAVHAVEEMGYSPEDVIKILGLSRNTIYDWLKRFREHGYEGLDTKK | -0.957 |

| Sequence | soluble fraction (log2) |
| --- | --- |
| HMKPLAQQVNDYLAATRTSIATLANEIPGYSRPTISRYLAGKYDGDITTIEKLLAEWLAQRTG | -0.832 |
| HMKPNEYVSGETFPYLGKNYRLKVLHGSENSVRLKGGYFITTISNRDSQLSTVKSLLEDWYQTHADK | 0.043 |
| HMKPPTIELSYSEFIELVERGKVSKVIFSSDNYTLKGETVNGENFETVRPPFLEDNLSEILTIHKVPVSSE | -0.109 |
| HMKPSKTVYTTANLNLRNGASMSAAVYTSVSRGTALATTGRTTSGWTQITHRGRTLWASSKYLTTTTPP | -3.17 |
| HMKPSNRSYPTALRMEVIGIIRERYADFGPTLAGEKLAELHGIHLGRETIRQWMMAAGLWKDRR | -1.09 |
| HMKPTVKVPNVVNLSLRNAQIQLQNYGLEVGSISYESSRFKNAVLRQSISEGSVVEKGTTINLVISDGL | -1.56 |
| HMKPVPPLNGTSLRDLALGYAGRYATTAARLKHYLQRKLRERGWGGEDEPDLDGLVARLVELGYVNDEVF | -0.704 |
| HMKQAINFSDLNSLEEGLGIAIRQKWNEVSINDVPEDKIELVEDWINNNRGKYKGINISIGSTY | 0.114 |
| HMKQAVESAEAIFEEIARIKKLSLVKSEAEEIARKTGLQKFTIASQLLKNQHAYEMDESEIASLWDKKI | -0.0597 |
| HMKQDFVYNGFVEAKGDDLMVQINYKGETYYVTEGESFGGFTVKSANKDKVVLSGQGGAETVLEFR | -0.186 |
| HMKQENRLKILRKEKGLTQTKLANEIGVSKRTIIAWENDERQIKPDKAQQLADYFGVKEGYLLGYTNN | 0.114 |
| HMKQESSEDLLNEVIDKVIDSNPDEKNRLLDGELKLVSFFMGQVMKETKGKANPGVINGLIKKKFNI | -0.701 |
| HMKQISNTDELEAMIQKIIEDNSQQVEKFRSGNEKLFGWFVGQVMKNTQGAANPKVVNEILKKSLK | 0.318 |
| HMKQISNTDELESMAKNIIQENPDQVSKFKNGNEKLFGWFVGQMMKSTGGTANPKVVNEILKNLLN | 0.134 |
| HMKQLIGYSVIDIKMGKLGEISFVNSKTAQALIHVSKDGKGFYFPWHKQFVKNIDAEKGIMEVEIPKEFLD | -0.974 |
| HMKQLNKRQNDILSFAEKQGYVSVENLAKLFSVTQQTIRRDINYLSDNELLVRTHGGAYYSS | -1.18 |
| HMKQNRNLPVQIINNGKIIESVMTEFNLDIDWVYSEAKRLGYKNIKDIFYAGINRDGQFFIVPLF | -3.06 |
| HMKQNVEAVIKERAIEKARAQVKAVSTHMALEAQSLSKEQLEFEIERIAAQIIDKMPSDFWND | -1.28 |
| HMKQPNFTVIETKILELLFQKDLSSREMQEILKISKDNLIFALQNLLEQEKIVLQTSNTYTVN | -1.88 |

Reference: the domain aggregation screens of Martell et al. (2025)
